Results reported in publication PMC5623693, “Rb‐independent E2F3 promotes cell proliferation and alters expression of genes involved in metabolism and inflammation” (FEBS Open Bio, 2017).
No end group written: not given here. *: point of attachment. 5‑TAMRA = CN(C)c1ccc2c(-c3ccc(C(=O)*)cc3C(=O)[O-])c3ccc(N(C)C)cc3[o+]c2c1

Tests used:
Test in all cases: fluorescence polarisation; TAMRA-labeled peptide (100 nM stock, 1 uL in 10 uL final) with purified protein serially diluted 1:2; 20 mM HEPES, 100 mM KCl, 0.1% Tween-20, 5 mM DTT, pH 7.8; 20 min in the dark at room temperature; Kd by Michaelis-Menten equation, least-squares nonlinear regression
[1] = biological target: Tamra-labeled E2F1-mutant peptide (L415Q) (human)
[2] = biological target: Tamra-labeled E2F1 WT peptide (human)
[3] = biological target: T1, GST-pRb (aa379-928) (UniProt P06400 379-928); details: both partners purified
T1 construct: retinoblastoma protein pRb, residues 379-928
T1 sequence (looked up): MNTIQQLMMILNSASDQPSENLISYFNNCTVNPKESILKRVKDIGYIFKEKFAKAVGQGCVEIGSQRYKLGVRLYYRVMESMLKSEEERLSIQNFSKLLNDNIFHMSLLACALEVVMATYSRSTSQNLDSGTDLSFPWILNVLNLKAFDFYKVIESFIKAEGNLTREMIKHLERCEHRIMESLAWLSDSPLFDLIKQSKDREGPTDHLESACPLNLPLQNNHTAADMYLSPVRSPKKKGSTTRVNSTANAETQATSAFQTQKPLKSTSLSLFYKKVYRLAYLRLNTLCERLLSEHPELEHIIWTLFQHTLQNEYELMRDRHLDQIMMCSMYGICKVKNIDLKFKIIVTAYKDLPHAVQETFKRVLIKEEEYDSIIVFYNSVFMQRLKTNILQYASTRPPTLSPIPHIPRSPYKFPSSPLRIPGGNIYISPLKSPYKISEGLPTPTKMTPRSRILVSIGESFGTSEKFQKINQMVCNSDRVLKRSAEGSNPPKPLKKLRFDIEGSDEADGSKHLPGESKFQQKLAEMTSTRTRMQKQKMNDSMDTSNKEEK

With “HIS-p107 (aa379-1104) (domain or fragment)” the Kd [1] was 200 µM and the Kd [2] was 7 µM.

B1: Tamra-labeled E2F1-mutant peptide (L415Q) (peptide)
peptide: {5‑TAMRA}-EALDYHFGQEEGEGIRDLFDCDFG
notes: also called E2F1 L415Q peptide; LQ; source: synthetic peptide (Peptide 2.0)
Molecule B1 has a Kd [3] of 20 µM.

B2: Tamra-labeled E2F1 WT peptide (peptide)
peptide: {5‑TAMRA}-EALDYHFGLEEGEGIRDLFDCDFG
notes: L415 is the ninth letter; also called WT E2F1 peptide; E2F1 C-terminal peptide; source: synthetic peptide (United BioSystems)
B2 gave a Kd [3] of roughly 3 µM.
